# From the nanobody polyreactivity screen of Harvey et al. (2022)
# Assay: yeast display, Sf9 membrane polyspecificity reagent, FACS + sequencing; frameworks hold sequencing errors
# Method in brief: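 A nanobody's polyreactivity label depends on the gate it was sorted from. Yeast display cells were stained with 10% biotinylated, detergent-solubilized Sf9 membrane reagent for 1 hour at 4 °C, enriched on streptavidin microbeads and sorted by FACS. The low and high (top ~1%) gates were set on anti-HA fluorescence for expression and streptavidin fluorescence for reagent binding.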
row,Sequence,polyreactivity (PSR sort gate)
1,QVQLEESGGGLVQAGGSLRLSCAASGRIFGGNAMGWYRQAPGKERELVAAINSSGGRTYYADSLKGRFTISRDNAKYTVYLQMNSLKTEDTAVYYCSARVVGNWYDYWGQGTQVTVSS,high polyreactivity
2,QVQLVESGGGLVQAGGSLRLSCAASGSIFPFYAMGWYRQAPGKERELVAAISSRGGSTYYADSVKGRFTISRDNAKNTVYLQMNSLKPEDTAVYYCAARDYSIKVRLGYWGQGTQVTVSS,low polyreactivity
3,QVQLVESGGGLVQAGGSLRLSCAASGRTFGRYAMGWYRQAPGKERELVARISFSGGSTHYADSVKGRFTISRDNAKNTVYLQMNSLKPEDTAVYYCNTDWYRNWGKPYYYWGQGTQVTVSS,high polyreactivity
4,QVQLVESGGGLVQAGGSLRLSCAASGRNFSTYAMGWYRQAPWKERELVAAINKIGGSTYYADSVKGRFTISRDNAKNTVYLQMNILKPEDTAVYYCAADAPYYPVRRYYYWGQGTQVTVSS,low polyreactivity
5,QVQLVESGGGLFQAGGSLRLSCAASGSIFRYYVMGWYRQAPGKEMELVAAISTGDRTNYADSVKGRFTISRDNAKNTVYLQMNSLKPEDTAVYYCNADYVVGWARLEFNYWGQGTQVTVSS,low polyreactivity
6,QVQLVESGGGLVQAGGSLRLRSAATGRTYRLYAMGWYRQAPGKERELVAAITRGGRTNYADSVKGRFTISRDNAKNTVYLEMNSLKPEDTAVYYCAARYRLPIPGTQYEYWGQGTQVTVSS,low polyreactivity
7,QVQLVESGGGLVQAGGSLRLSCAASGSICVDNAMGWYRQAPGKERELVAVITLRSGSTNYADSVKGRFTISRDNAKNTVYLQMNSLKPEDTAVYYCAADDTYHDYQRDTDDDYWGQGTQVTVSS,low polyreactivity
8,QVQLVESGGGLVQAGGSLRLSCAASGSTFGINTMGWYRQAPGKERELVASINRGGTTNYADSVKGRFTISRDNAKNTVYLQMNSLKPEDTAVYYCNARYYVTRLSRFRYGYWGQGTQVTVSS,high polyreactivity
9,QVQLVESGGGLVQAGGSLRLSCAASGGTFYIYVMGWYIQAPGKERELVAAITSGDSTNYADSVKGRFTISRDNAKNTVYLQMNSLKPEDTAVYYCATGYWELRYDYWGQGTQVTVSS,low polyreactivity
10,QVQLVESGGGLVQAGGSLRLSSAASGRTFNYYTMGWYRQAPGKERELVAAITNGGSTNYADSVKGRFTISRDNAKNTVYLQMNSLKPEDTAVYYCNADAFAFRTLHYDYWGQGTQVTVSS,low polyreactivity
11,QVQLVESGGGLVQAGGSLRISCAASGITFDQNAMGWYRQAPGKEREFVGAITRGSSTNYADSVKGRFTISRDNAKNTVYLQMNSLKPEETAVYYCNADGYARFRTYYCRDTREYDYWGQGTQVTVSS,low polyreactivity
12,QVQLVESGGGLVQAGGSLRLSCAASGRTFGGYAMGWYRQAPGKERELVADITSSGSTTYYADSVKGRFTISRDNSKNNVYLERYSLKPEDTAVYYCNAEGYSPVLYDYWGQGTQVTVSS,low polyreactivity
13,QVQLVESGGGLVQAGGSLRLSCAASGRIYRINALGWYRQAPGKERELVATITSGGGSTYADSVKGRFTISRDNAKNTVYLQMNSLKPEDTAVYFCAARSRIGRYTYDYWGQGTQVTVSS,high polyreactivity
14,QVQLVESGGGLVQAGGSLRLSCAASGSILWQYAMGWYRQAPGKERELVAAISTGGSTYYAESVKGRFTISRDNAKNTVYLQMNSLKPEDTAVYYCAAYVDYSVYFGGGYWGQGTQVTVSS,low polyreactivity
15,QVQLVESGGGLVQAGGSLRLSSAASGSTFSDYAMGWYRQAPGKERELVAAISVSDGSTYYADSVKGRFTISRDNAKNTVYLQMNSLKPEDTAVYYCAAEYPYFVYSYFRFDYWGQGTQVTVSS,low polyreactivity
16,QVQLVESGGGLVQAGGSLRLSCASSGFTFFYYAMGWYRQAPGKERELVAAISASGGSTSYADSVKGRFTISRDNAKNTVYLQMNSLKPEDTAVYYCAARVYSVRSGYYYWGQGTQVTVSS,high polyreactivity
17,QVQLVESGGGLVQAGGSLRLSCAASGFTIYRYALGGYRPAPGKERELVAAISKSGVSTYYADSVKGRFTISRDNAKNTVYLLMNSLKPEDTAVYYCAVSLTYRWISFDYWGQGTQVTVSS,high polyreactivity
18,QVQRVESGGGLVQAGGSLRLSCAASGSIFPYYAMGWYRQAPGKETELVATITYRGGSTNYADSVKGRFTISRDNAKNTVYLQMNSLKPEDTAVYSCAAYGYVLASPYPYSFVKLGYCGQGTQVTVSS,low polyreactivity
19,QVQLVESGGGVVQAGGSLRLSCAASGFTFVYNAMGWYRQAPGKEREFVAAISGRGGSTYYADSVKGRFTISRDNAKNTVYLQMNSLKPEDTAVYYCATTYSWYYVPYKTHIYYYWGQGTQVTVSS,low polyreactivity
20,QVQLVESGGGLVQAGGSLRLSCAASGRIFGRNTMGWYRQAPGKERELVAVISFRGGSTYADSVKGRFTISRDNAKNTVYLQMNSLKPEDTAVYYCARTAYSTRPYRFDYWGQGTQVTVSS,high polyreactivity
21,QVQLVESGGGLVQAVGSLRLSCAASGSTFAYYAMGWYRQAPGKEREFVAAISTRGGSTYYADSVKGRFTISRDNAKNTVYLQLISLKQEDTAFYYCAAGYFIYSWRIRFDHWGQGTQVTVSS,high polyreactivity
22,QVQIVESGGGLVQAGGSLRLSCAASGRIFKLYAMGWSRQAPGKERELVAAITRRGGSTSYADSVKGRFTISRDNAKNTVYLQMNSLKPEDTAVYYCAASYTGRTVVQGYEYWGQGTQVTVSS,high polyreactivity

row,Sequence,polyreactivity (PSR sort gate)
1,QVQLVESGGGLVQAGGSLRLSCAASGRIFTGYAMGWYRQAPGKERELVAAISRGGSTNYADSAKGRFTISRDNAKNTVYLQLNSLKPEDTAVYYCAAGVHWDRGDYWGQGTQVTVSS,low polyreactivity
2,QVQLVESGGGLVQAGGSHRLSCAAYGSIFATNAMGWYRQAPGKERELVASISYSVSRTYYADSVKGRFTISRDNSMNTVYLQMNSMKPEDTAFYYSAVRQVNWFGIGYEDDYWGQGTQVTVSS,low polyreactivity
3,QVQLVESGGGLVQAGGSLRLICAASGFIYHNAMGWYRQATGTERELVARITWSGGSTSYADSVKGRFTISRDNAKNTVYLQKNSLKPEDTAVYYCAARGVVYRYGASRGYWGQGTQVTVSS,high polyreactivity
4,QVQLVESGGGLVQAGGSLRLSCAASGSIFKSYAMGWYRQPPGKERELVAAISWSGTSTYYADSVKGRFTISRDNAKNTVYLLMNSLKPEDTAVYYCNAVSVSSKRSDYWGQGTQVTVSS,low polyreactivity
5,QVQLVESGGGLVQAGGSLRLSCAASGSTKYYVMGWYRQAPGKERELVAAISRGSSTYYADSVKGRFTISRDNAKNTVYLQMNSLKPEDTAVYYCAARGPWQAPYDYWGQGTQVTVSS,high polyreactivity
6,QVQLVESGGGLVQAGGRLRLSCAASGFIFYYNTMGWYRQAPGKERELVAAISSGGRTYYADSVKGRFTISRDNAKNTVYLQMNSLKPEDTAVYYCNVVTYVKYGYWGQGTQVTVSS,high polyreactivity
7,QDQLLESGGGLVQAGGSLRISCAASGRTIIRNAMGWSRQAPGKERELVAAITSGGSTNYADSVKGRFTISRDNAKNTVYLQMNSLKPEDTAVYYCAARYGSQYKHRFYYWGQGTQVTVSS,high polyreactivity
8,QVQLVESGGGLVQAGGSLRLSCAASGRTFRGYAMGWYRQAPGKEREFVAAITWTSGSTYYADSVKGRFTISRDNAKNTVYLQMNSLKPEDTAVYYCAARVYSQALRLWGNNYWGQGTQVTVSS,high polyreactivity
9,QVQLQESGGGLVQAGGSLRLSCAASGTISDSGLMGWYRQAPVKERELVAGIRSGGITNYADSVKGRFTISRDNAKNTVYLQMNSLKPEDTAVYWGQGTQVTVSS,low polyreactivity
10,QVQLVESGGGLVQAGGSLRLSCAASGSIFEVNAMGWYRQAPGKERELVATITYSGGSTYYSDSVKGRFTISRDNAKNTVYLQMHSLKPEDTAVFYCAAPIGDVYVGNGYDSWGQGTQVTVSS,low polyreactivity
11,QVQLVESGGGLVQAGGSLRLSCAASGRISDVYVMGWYRQAPGKERELVAAITWSGGDTYYADSVKGRFTISRDNAKNTVYLQMNSLNPEDTAVYYCNADTGKWGGNGWYEFDYWGQGTQVTVSS,low polyreactivity
12,QVQLVESGGGLVQAGGSLRLSCAASGSIFHGYAMRWYRQAPGKERELVAAISRNGGGTYYADSVKGRFTISRDNAKNTVYLQMNSLKPEDTAVYYCAVVRYSSRYDYWGQGTQVTVSS,high polyreactivity
13,QVQLVESGGGLVQAGGSLRLSCAASGRIFRLYVMGWYRQAPGKERELVATISSRGGSTYYADSVKGRFTISRDNAKNTVYLQMNSLKPEDTAVYYCAAVSRYRYGYDYWGQGTQVTVSS,high polyreactivity
14,QVQLVESGGGLVQAGGSLRLSCAASGSIFGYYVMGWYRQAPGKERELVAAISRSGGSTYYADSVKGRFTISRDHAKNTVYLQMNSLKPEDTAVYYCAARGTAERDYWGQGTQVTVSS,high polyreactivity
15,QVQLVESGGCLVQAGGSLRLSCAASGFIFSGYVMGWYRQAPGKERELVARIDGGGTTNYADSVKGRFTISRDNAKNTVYLQMNSLKPADTAVYYCNARFGEGFDYWGQGTQVTVSS,low polyreactivity
16,QVQLVESGGGLVQAGGSLRLSCAASGFTSWDIDMGCYRQAPGIEREMVAAITGGGTTNYADSVKGRFTISRDNAKNTVYLQMNSLKPEDTAVYYCAAKPWWYSGYDYWGQGTQVTVSS,low polyreactivity
17,QDHLVESGGGLVQAGGSLRLSCAASGSTFGWYAMGWYRHAPGKERELVAVITRGGSTYYADSVKGHFTITLDNAKNTVYLQMNSLKPEDTAVYFCAARYRLPPYYYWGHGTQVTVSS,high polyreactivity
18,QVQLQESGGGLVQAGGSLRLSCAASGSISSRDAMGWYRQAPGKEREFVATIASGTTTYYADSVKGSFTISRDNAENTLYLQTNSLKPEDTAVYYCAAPTIQIYPFYYWGQGTQVTVSS,high polyreactivity
19,QVQLVESGGGLVQAGGSLSLRCAGSGRTFRTYTMGWYRQARGKERELVAAISWSGSSTYYADSVKGRVTISRDHAKNTVYLQLNSLKPEDTAVYYCAARYVSRRFLGYYYWGQGTQVTVSS,high polyreactivity
20,QDQLGESGGGLVQAGGSLRLSCAASGRSFTYYTMGWYRQAPGKERELVATINNSGGSTYYADSVKGRFTISRDNAKNTVYLQMNSLKPEDTAVYYCAKVLGLPYGAPRSIFVEWEMDYWGQGTQVTVSS,low polyreactivity
21,QVQLVESGGRLVQAGGSLRLSCAASGSTFTKYALGWYRPAPGKERELVAAISRSGGSTYYADSVKGRFSISRDNAKNTVYLQMNSLKPEDTAVYYCAARDSSRNYFGDGARDYWGQCTQVTVSS,high polyreactivity
